Data taken from patent US20240093159A1 (UNIVERSITY OF DUNDEE, published 2024).

Experiments:
[1] = molecular target: T1, commercially sourced Im7 linked to Sepharose (UniProt Q03708 1-87, linked to Sepharose resin); experiment: E. coli cytosol incubated with Im7-Sepharose, extensive washing, TEV release, SDS-PAGE
T1 construct: also called Im7-Sepharose; Im7-agarose
T1 sequence: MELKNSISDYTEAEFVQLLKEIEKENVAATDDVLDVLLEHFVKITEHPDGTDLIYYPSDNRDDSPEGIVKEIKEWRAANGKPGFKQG

[2] = molecular target: T2, Human IL17RA protein (SinoBiological) (human, UniProt Q96F46 33-320); experiment: receptor binding ELISA, IL17RA coated at 0.25 ug/well
T2 construct: Coated on ELISA plates at 0.25 ug/well; also called IL17RA receptor
T2 sequence (looked up): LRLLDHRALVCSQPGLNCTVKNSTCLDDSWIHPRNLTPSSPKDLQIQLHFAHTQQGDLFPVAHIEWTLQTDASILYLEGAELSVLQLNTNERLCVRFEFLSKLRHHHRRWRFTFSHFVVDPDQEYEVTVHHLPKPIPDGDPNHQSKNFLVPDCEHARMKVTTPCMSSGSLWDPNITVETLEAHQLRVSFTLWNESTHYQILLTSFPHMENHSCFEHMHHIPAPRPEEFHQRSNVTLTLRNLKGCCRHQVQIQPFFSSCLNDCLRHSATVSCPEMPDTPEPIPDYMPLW

B1: ColE7-IL33 fusion (Colicin E7 catalytic domain, linker, TEV site, murine IL-33 C-terminal fragment) (other)
chain: ESKRNKPGKATGKGKPVNNKWLNNAGKDLGSPVPDRIANKLRDKEFKSFDDFRKKFWEEVSKDPELSKQFSRNNNDRMKVGKAPKTRTQDVSGKATSFALHHEKPISQNGGVYDMDNISVVTPKRAIDIHRGKSGGGSSGSGENLYFQGSSIQGTSLLTQSPASLSTYNDQSVSFVLENGCYVINVDKSGKDQEQDQVLLRYYKSPCPASQSGDGVDGKKLMVNMSPIKDTDIWLHANDKDYSVELQRGDVSPPEQAFFVLHKKSSDFVSFECKNLPGTYIGVKDNQLALVEEKDESCNNIMFKLSKI
notes: also called ColE7-1L33; ColicinE7-IL33
- binding result [1]: binds

B2: IL33 purified on Im7-Sepharose and released from ColE7 by TEV protease (ligand)
chain: GSSIQGTSLLTQSPASLSTYNDQSVSFVLENGCYVINVDKSGKDQEQDQVLLRYYKSPCPASQSGDGVDGKKLMVNMSPIKDTDIWLHANDKDYSVELQRGDVSPPEQAFFVLHKKSSDFVSFECKNLPGTYIGVKDNQLALVEEKDESCNNIMFKLSKI
- binding result [2]: no binding
